Measured values taken from publication PMC3334968, “Development of a Tetrameric Streptavidin Mutein with Reversible Biotin Binding Capability: Engineering a Mobile Loop as an Exit Door for Biotin” (PLoS ONE, 2012).

Target: the molecule itself
Experiment: SDS-PAGE of unboiled samples; oligomeric state in SDS-PAGE, samples not boiled, without biotin, with or without 0.7 M β-mercaptoethanol

B1: 8-aa-loop-H127C mutein (streptavidin) (natural protein, UniProt P22629 25-183, looked up)
chain: DPSKDSKAQVSAAEAGITGTWYNQLGSTFIVTAGADGALTGTYESAVGNAESRYVLTGRYDSAPATDGSGTALGWTVAWKNNYRNAHSATTWSGQYVGGAEARINTQWLLTSGDSSNGSDGSTLVGCDTFTKVKPSAASIDAAKKAGVNNGNPLDAVQQ
modifications: disulfide bond between the Cys-127 residues of adjacent subunits
notes: streptavidin; loop7-8 (residues 114-121) replaced and H127C added; SDS-PAGE was done without biotin; also called MH127C; 8-aa-loop-H127 mutein; source: B. subtilis WB800, secreted, purified from culture supernatant (biotin-agarose)
Which “stoichiometry N” value does the source give for B1 here?
The value was 4.
